How the values were obtained:
Test in all cases: colorimetric sulfide formation, Michaelis-Menten fit
[1] = substrate: N[C@@H](CS)C(=O)O; type: biochemical, Spodoptera littoralis; conditions: 6 mM KCN, 20 µM pyridoxal-5'-phosphate, Tris-HCl pH 8.5, 31 °C, 10 min
Excerpt: colorimetric sulfide formation, Michaelis-Menten fit on SlBSAS2b

[2] = substrate: N[C@@H](CS)C(=O)O; type: biochemical, Spodoptera littoralis; conditions: 6 mM KCN, 20 µM pyridoxal-5'-phosphate, Tris-HCl pH 8.5, 31 °C, 10 min; remark: listed apart in the source
Excerpt: colorimetric sulfide formation, Michaelis-Menten fit on SlBSAS2a

[3] = substrate: N[C@@H](CS)C(=O)O; type: biochemical, Anthocharis cardamines; conditions: 6 mM KCN, 20 µM pyridoxal-5'-phosphate, Tris-HCl pH 8.5, 31 °C, 10 min
Excerpt: colorimetric sulfide formation, Michaelis-Menten fit on AcaBSAS2

[4] = substrate: N[C@@H](CS)C(=O)O; type: biochemical, Colias croceus; conditions: 6 mM KCN, 20 µM pyridoxal-5'-phosphate, Tris-HCl pH 8.5, 31 °C, 10 min
Excerpt: colorimetric sulfide formation, Michaelis-Menten fit on CcBSAS2

[5] = substrate: N[C@@H](CS)C(=O)O; type: biochemical, Anthocharis cardamines; conditions: 6 mM KCN, 20 µM pyridoxal-5'-phosphate, Tris-HCl pH 8.5, 31 °C, 10 min; remark: listed apart in the source
Excerpt: colorimetric sulfide formation, Michaelis-Menten fit on AcaBSAS1

[6] = substrate: N[C@@H](CS)C(=O)O; type: biochemical, Aporia crataegi; conditions: 6 mM KCN, 20 µM pyridoxal-5'-phosphate, Tris-HCl pH 8.5, 31 °C, 10 min
Excerpt: colorimetric sulfide formation, Michaelis-Menten fit on AcrBSAS2

[7] = substrate: N[C@@H](CS)C(=O)O; type: biochemical, Anthocharis cardamines; conditions: 6 mM KCN, 20 µM pyridoxal-5'-phosphate, Tris-HCl pH 8.5, 31 °C, 10 min; remark: listed apart in the source
Excerpt: colorimetric sulfide formation, Michaelis-Menten fit on AcaBSAS3

[8] = substrate: N[C@@H](CS)C(=O)O; type: biochemical, Aporia crataegi; conditions: 6 mM KCN, 20 µM pyridoxal-5'-phosphate, Tris-HCl pH 8.5, 31 °C, 10 min; remark: listed apart in the source
Excerpt: colorimetric sulfide formation, Michaelis-Menten fit on AcrBSAS1

[9] = substrate: N[C@@H](CS)C(=O)O; type: biochemical, Gonepteryx rhamni; conditions: 6 mM KCN, 20 µM pyridoxal-5'-phosphate, Tris-HCl pH 8.5, 31 °C, 30 min
Excerpt: colorimetric sulfide formation, Michaelis-Menten fit on GrBSAS2

[10] = substrate: N[C@@H](CS)C(=O)O; type: biochemical, Plutella xylostella; conditions: 6 mM KCN, 20 µM pyridoxal-5'-phosphate, Tris-HCl pH 8.5, 31 °C, 10 min
Excerpt: colorimetric sulfide formation, Michaelis-Menten fit on PxBSAS2

[11] = substrate: N[C@@H](CS)C(=O)O; type: biochemical, Colias croceus; conditions: 6 mM KCN, 20 µM pyridoxal-5'-phosphate, Tris-HCl pH 8.5, 31 °C, 10 min; remark: listed apart in the source
Excerpt: colorimetric sulfide formation, Michaelis-Menten fit on CcBSAS3

[12] = substrate: N[C@@H](CS)C(=O)O; type: biochemical, Zygaena filipendulae; conditions: 6 mM KCN, 20 µM pyridoxal-5'-phosphate, Tris-HCl pH 8.5, 31 °C, 10 min
Excerpt: colorimetric sulfide formation, Michaelis-Menten fit on ZfBSAS2

B1: SlBSAS2b (Spodoptera littoralis) (protein)
chain: MAPVEKNLKDEQPKYLKGDIKASALELIGNTPMVALDRLYSGPGRILAKCEFMNPGASIKCRSSLSMINRAIASGELKPGEPVVEITSGNQGCGLAVVCAVLGHPLTLAMSKGNSVQRALHMEALGAKVVRVDQVKGTYGNVTYADVEVVREVCDKLVKDQNAYFVNQFSNEANADAHYESTGPEIWQQTGHHVDAFVAAVGTAGTFMGTSRYLKEQNPNIKAYVVEPAGAEAIAGCEVTKPLHLLQGSGYGLIPDLLKYEFMDGSLSVTDEEAVKYMKLIGEKEGLYVGYTSGANVAAAIKLLESGLVPEDAWVVTVLADTGLKYTPVPEELMK
notes: N-terminal Strep-tag, E. coli BL21(DE3) pLysS; Strep-Tactin purified
B1 was tested, and the Km [1] was 1.07 (±0.03) mM and the Vmax [1] was 11.6 µmol/min/mg.

B2: SlBSAS2a (Spodoptera littoralis) (protein)
chain: MAPIEKDEQPKYLEGDIKASALELIGNTPLVALDRLYTGPGRILAKCEFMNPGASIKCRSSLSMINRAIASGELKPGEPVVEITSGNQGCGLAVVCAVLGHPLTLAMSKGSSAQRALHMEALGAKCVRVDQVEGTYGNVTYADVKAVEEVGMKIVEEQNAYFVNQFHNEANADAHYKSTGPEIWKQTGHHVDAFVATVGTSGTFAGTSRYLKEQNPDIKTYVVEPAGAEAIAGCPITKPLHLLQGSGYGWIPDLFKFEHMDGTLSVTDEEAVKYMKLVGEKEGLYVGYTSGANVAAAVKLLESGLIPEDAWVVTLLNDTGLKYTPVPEELFK
notes: as for B1
B2 was tested, and the Km [2] was 0.60 (±0.01) mM and the Vmax [2] was 1.44 µmol/min/mg.

B3: AcaBSAS2 (Anthocharis cardamines) (protein)
chain: MTKENGIPNEIKSSALDLIGETPLLALDRLHPGPGRILVKCEFNNPGASIKCRSAMHMIQEARAKGELKPGQPVLEVTSGNQGVGLAIVCAIYGHPLTATMSKGNSVQRAVHMEALGAKCIRVPQVEGTYGNVTINDVKAAEEEGLKIAKETGAYYVNQFNNDDNANSHYLTTGPEIWRQSGHHVDAFIATVGTAGTFAGTSRYLKEKNPDIQCYVVEPEGSQPIRGCEITKPLHLLQGSGYGCIPNLFKFETMDGTLSVTDEEAVRYKNLVGEKEGLYVGYTSGANVAAAVKLLKSGKLPEDAWVVTPLNDSGLKYTPVPDSLT
notes: as for B1
B3 was tested, and the Km [3] was 0.44 (±0.01) mM and the Vmax [3] was 1.76 µmol/min/mg.

B4: CcBSAS2 (Colias croceus) (protein)
chain: MAKVNGIQNEIKESALDLIGNTPIVALDRLHPGPGRILAKCEFMNPGASIKCRSSLHMINKAIEKGLLKPGQSVLEVTSGNQGCGLAVVCSVMGHPLTVTMSMGNSAQRAIHMEALGAKCVRVPQVEGTYGNVTLADVKAAEKEGLRLAEEIGAYYVNQFNNEDNANSHYCTTGPEIWRQTGHRVDAFVATVGTAGTFTGSSRFLKEKNPNIQCYVVEPEGSQPIRGCAITKPLHLLQGSGYGCVPNLFNFETMDGTLSVTDEEASKYMKLIGEKEGLYVGYTSGANVAAAVKLLNSGTLPEDAWVVTLLNDSGLKYTPVPESLSGNSNNANSD
notes: as for B1
With B4 the Km [4] was 0.75 (±0.06) mM and the Vmax [4] was 1.04 µmol/min/mg.

B5: AcaBSAS1 (Anthocharis cardamines) (protein)
chain: MGQACEKQTDIRASAIELIGNTPLVALDRLHPGPGRILAKCEFMNPGGSIKCRASLHMIQKARLRGTLKPGDPVVEATSGNQGCGLAVACAVLGHPLTLTMSKGNTVQRAIHMEALGAKCIRVPQVEGTYGNVTNADLMAAKDEAISFHEKTGAFFVKQFVNEDNVEAHYTTTGPEIWYQTGNRVDAFVTAVGTSGTFMGVSKYLKKQNPKIRCYVVEPEGCEPIKGKPITKASNTLQGSSYGVIPDLFKFEYMNETITVTDEEAEEYRDLIGSKEGLYVGYTSGANVCAAVKLLKSGKLPKNAWVVTILFDTGLKYTPVPESLM
notes: as for B1
B5 was tested, and the Km [5] was 0.41 (±0.01) mM and the Vmax [5] was 23.8 µmol/min/mg.

B6: AcrBSAS2 (Aporia crataegi) (protein)
chain: MAKVNGIKNEIKTSALELIGETPLLALDRLHPGPGRILVKCEFMNPGASIKCRSSLHMIQEARAKGLLKPGQPVLEVTSGNQGCGLAIVCAIYGHPLTVTMSKGNSLQRAIHMEALGAKCVRVPQVEGTYGNVTVNDVNAAEEEGLKIVKETGAYYVNQFNNEDNANSHYLTTGPEIWRQSGHNVDAFVATVGTAGTFAGTSRYLKEKNPNIKCFVVEPEGSQPIKGCPITKPLHLLQGSGYGCIPNLFNFDTMDGTLSVTDEEAVEYKNLIGEKEGLFVGFTSGANVAAAVKLLKSGLIPENSCLVTILNDTGLKYTPVAESLI
notes: as for B1
For B6, the Km [6] was 0.58 (±0.04) mM and the Vmax [6] was 2.09 µmol/min/mg.

B7: AcaBSAS3 (Anthocharis cardamines) (protein)
chain: MSDSNGIPNEIKASALDLIGNTPLVALDRLHPGPGRILAKCEFMNPGGSIKCRSSLHMIQKARERGELKPGGSVVEVTSGNQGCGLAVVCAVLGHDLTVTMSKGNSIQRVIHMEALGAKCIRYPLVQGTYGNVTFADVEEALEAATNMSEESGAFFVKQFCNLENEEAHYVTTGPEIWRQTGHRVDAFVTAVGTSGTFSGVSTFLKEQNPDVKCFVVEPEGSQPLKGCPITKPLHLLQGASYGIIPDLFKPDLMEDSISVTDKEAVHYKDLIGTKEGLFVGYTSGANVAAAVKLLNSGKLPKDAWVVTTLCDTGLKYTPVPESLIE
notes: as for B1
For B7, the Km [7] was 0.96 (±0.04) mM and the Vmax [7] was 1.41 µmol/min/mg.

B8: AcrBSAS1 (Aporia crataegi) (protein)
chain: MGQTCEKQTDIRSSALELIGNTPLVALDRLYPGPGRLLAKCESMNPGGSIKDRASYHMIKKARLRGELKPGDPVIEATSGNQGCGLAVSCAVLGHPLTLTMSKGNTVQRAIHMEALGATCVRVPQVEGTYGHVTNADLMVVKKEAIVLQQKTGAFFVNQFLNEDNVEAHYISTGPEIWHQTAGRVNAFVTAVGTSGTFMGVSRFLKKQNPKIQCYVVEPEGCEPIKGKPIIKASNTLQGSSYGLVPDLFKYEVMSETITVTDEEAQEYMHLIGKKEGLYVGYTSGANVCAAVKLLKSGKLSKKAWVVTILFDTGLKYTPVPSLM
notes: as for B1
For B8, the Km [8] was 0.26 (±0.00) mM and the Vmax [8] was 14 µmol/min/mg.

B9: GrBSAS2 (Gonepteryx rhamni) (protein)
chain: MAKVNGIHSEIKESALDLIGNTPIVALDRLHPGPGRILAKCEFMNPGASIKCRSSLHMIQVAREKGLLKPGQPVLEVTSGNQGCGLAVVCSVMGHPLTVTMSKGNSVQRAIHMEALGAKCVRVPQVEGTYGNVTLADVKAAEQEGLRIAEETGAYYVNQFSNDDNANSHYCTTGPEIWRQTGHRVDAFVATVGTAGTFAGSSAYLKEKNPKIQCYVVEPEGSQPIRGCPITKPLHLLQGSGYGCIPNSFKFDTMDGTLSVTDEEATRYKNLIGEKEGLYVGYTSGANIAAAVKLLNSGKLPEDAWVVTLLNDSGLKYTPVPESLT
notes: as for B1
B9 was tested, and the Km [9] was 0.37 (±0.00) mM and the Vmax [9] was 0.24 µmol/min/mg.

B10: PxBSAS2 (Plutella xylostella) (protein)
chain: MSTIDGVIDGVHNEVKASALELIGNTPLVALDRLHPGPGRLLVKCEFMNPGASLKDRSSLHMIQDARAEGRLAPGAPVVEITSGNQGCGLAVVCAVLGHPLTLTMSAGNSVQRALHMEALGARCVRVPQVEGRYGSVTFADVEVCEKEGHKIVEETGAFLVNQFHNPSNSLSHYKMMGPEIWRQTGGRVDGFVATMGTGGVFTGTSRFLKEQNKDVKTYVVEPAGAEVIKGDAITKPLHLLQGSGYGYVPSLFDRSLLDGTLAVTDEETLEYRRLIGEKEGLFVGYTSAANVAAAARLLRSGQLPPDAWVVTILCDTGLKYC
notes: as for B1
B10 was tested, and the Km [10] was 0.52 (±0.04) mM and the Vmax [10] was 3.72 µmol/min/mg.

B11: CcBSAS3 (Colias croceus) (protein)
chain: MTSSTNFPTDIKSSALELIGNTPLVALDRLHPGPGRILAKCEFMNPGASIKCRSSLHMIQKARERGDLKPGDPVIEVTSGNQGCGLAVVCAVLGHPLTLTMSKGNSVQRAIHMEALGAKCIRYPQVEGTYGNITYADVSIPIEAAVTLAEETGAYFVQQLCNEDNSAAHYEATGPEIWRQTGHRVDGFVTAVGTSGTFSGVSKFLKEQNPEILCCVVEPAGSEPLKGCPIVKPKHLLQGSSYGIVPNLFKPEFMDESISVTDEETEHYKDLIGKKEGLYVGYTSGANVAAAVKLLKSGKLPKDAWVVTVLCDSGLKYTPVPESLIN
notes: as for B1
For B11, the Km [11] was 1.50 (±0.08) mM and the Vmax [11] was 0.43 µmol/min/mg.

B12: ZfBSAS2 (Zygaena filipendulae) (protein)
chain: MSPPVLQHHDEIKSSALELIGNTPIVALDRLYTGPGRILAKCEFMNPGASIKCRSSLYMIQKALDEKLLKPGEPVLEVTSGNQGCGLAVVCAVLQHPLTLTMSKGNSAQRAVHMAALGAKCIRVPQVEGTYGNVTLADVKAAEAEGLRIVEKTGAYYVNQFNNEANTLAHYETTGPEIWRQTGGRVDAFVATVGTAGTFTGTSKYLKEKNPELKAYVVEPQGSEPIKQLPITKPLHVLQGSGYGCIPNLFNYSTMNDTISVTDEESKHYKKLLGTKEGLYVGYTSGANVAAAVKLLESGTLPDDAWVVTTLNDSGLKYSPTPDEIELSD
notes: as for B1
In the case of B12, the Km [12] is reported as 0.74 (±0.04) mM and the Vmax [12] is reported as 2.99 µmol/min/mg.
